Data: IntAct's records for PubMed 36376753

B1: SNF1-related protein kinase catalytic subunit alpha KIN10 (Arabidopsis thaliana (Mouse-ear cress)), Q38997 (parent)
chain: MDGSGTGSRSGVESILPNYKLGRTLGIGSFGRVKIAEHALTGHKVAIKILNRRKIKNMEMEEKVRREIKILRLFMHPHIIRLYEVIETPTDIYLVMEYVNSGELFDYIVEKGRLQEDEARNFFQQIISGVEYCHRNMVVHRDLKPENLLLDSKCNVKIADFGLSNIMRDGHFLKTSCGSPNYAAPEVISGKLYAGPEVDVWSCGVILYALLCGTLPFDDENIPNLFKKIKGGIYTLPSHLSPGARDLIPRMLVVDPMKRVTIPEIRQHPWFQAHLPRYLAVPPPDTVQQAKKIDEEILQEVINMGFDRNHLIESLRNRTQNDGTVTYYLILDNRFRASSGYLGAEFQETMEGTPRMHPAESVASPVSHRLPGLMEYQGVGLRSQYPVERKWALGLQSRAHPREIMTEVLKALQDLNVCWKKIGHYNMKCRWVPNSSADGMLSNSMHDNNYFGDESSIIENEAAVKSPNVVKFEIQLYKTRDDKYLLDLQRVQGPQFLFLDLCAAFLAQLRVL
partner: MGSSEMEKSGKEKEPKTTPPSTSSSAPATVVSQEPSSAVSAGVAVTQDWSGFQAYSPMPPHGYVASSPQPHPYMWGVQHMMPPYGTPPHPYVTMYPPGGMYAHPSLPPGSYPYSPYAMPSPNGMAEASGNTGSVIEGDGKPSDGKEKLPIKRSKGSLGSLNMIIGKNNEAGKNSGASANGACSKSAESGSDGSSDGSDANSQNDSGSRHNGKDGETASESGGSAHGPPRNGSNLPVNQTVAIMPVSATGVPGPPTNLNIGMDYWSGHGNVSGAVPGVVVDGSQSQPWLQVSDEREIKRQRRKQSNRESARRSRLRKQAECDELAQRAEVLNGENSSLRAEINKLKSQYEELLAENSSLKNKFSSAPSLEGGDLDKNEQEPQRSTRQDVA
B2: SNF1-related protein kinase catalytic subunit alpha KIN10 (Arabidopsis thaliana (Mouse-ear cress)), Q38997 (parent)
chain: B1 chain
partner: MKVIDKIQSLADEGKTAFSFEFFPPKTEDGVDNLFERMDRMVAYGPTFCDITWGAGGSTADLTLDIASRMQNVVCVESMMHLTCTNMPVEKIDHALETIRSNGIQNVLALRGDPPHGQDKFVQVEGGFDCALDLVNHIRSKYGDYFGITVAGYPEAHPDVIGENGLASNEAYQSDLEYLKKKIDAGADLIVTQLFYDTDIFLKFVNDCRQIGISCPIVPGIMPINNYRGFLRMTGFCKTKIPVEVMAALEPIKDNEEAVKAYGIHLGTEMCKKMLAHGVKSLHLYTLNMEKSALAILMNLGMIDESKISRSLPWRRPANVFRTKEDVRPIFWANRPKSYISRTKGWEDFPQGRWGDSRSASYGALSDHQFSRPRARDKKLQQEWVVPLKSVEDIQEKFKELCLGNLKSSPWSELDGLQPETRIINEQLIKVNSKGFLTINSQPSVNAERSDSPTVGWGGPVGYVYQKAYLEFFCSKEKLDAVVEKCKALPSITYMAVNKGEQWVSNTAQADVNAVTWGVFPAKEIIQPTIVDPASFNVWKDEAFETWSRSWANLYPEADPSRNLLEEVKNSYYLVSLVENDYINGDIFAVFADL
B3: SNF1-related protein kinase catalytic subunit alpha KIN10 (Arabidopsis thaliana (Mouse-ear cress)), Q38997 (parent)
chain: B1 chain
partner: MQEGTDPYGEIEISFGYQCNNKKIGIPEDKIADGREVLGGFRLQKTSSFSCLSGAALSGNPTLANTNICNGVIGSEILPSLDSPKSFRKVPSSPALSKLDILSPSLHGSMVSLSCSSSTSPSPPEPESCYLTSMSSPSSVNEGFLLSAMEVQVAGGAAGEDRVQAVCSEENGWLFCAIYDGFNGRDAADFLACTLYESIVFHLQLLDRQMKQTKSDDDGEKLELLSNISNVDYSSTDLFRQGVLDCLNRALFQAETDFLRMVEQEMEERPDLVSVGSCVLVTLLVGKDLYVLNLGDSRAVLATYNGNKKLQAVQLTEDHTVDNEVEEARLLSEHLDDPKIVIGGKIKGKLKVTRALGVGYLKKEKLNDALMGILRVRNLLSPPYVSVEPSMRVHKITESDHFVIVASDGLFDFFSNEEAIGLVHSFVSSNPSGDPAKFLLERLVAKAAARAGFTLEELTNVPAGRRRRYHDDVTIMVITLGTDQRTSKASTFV
B4: SNF1-related protein kinase catalytic subunit alpha KIN10 (Arabidopsis thaliana (Mouse-ear cress)), Q38997 (parent)
chain: B1 chain
partner: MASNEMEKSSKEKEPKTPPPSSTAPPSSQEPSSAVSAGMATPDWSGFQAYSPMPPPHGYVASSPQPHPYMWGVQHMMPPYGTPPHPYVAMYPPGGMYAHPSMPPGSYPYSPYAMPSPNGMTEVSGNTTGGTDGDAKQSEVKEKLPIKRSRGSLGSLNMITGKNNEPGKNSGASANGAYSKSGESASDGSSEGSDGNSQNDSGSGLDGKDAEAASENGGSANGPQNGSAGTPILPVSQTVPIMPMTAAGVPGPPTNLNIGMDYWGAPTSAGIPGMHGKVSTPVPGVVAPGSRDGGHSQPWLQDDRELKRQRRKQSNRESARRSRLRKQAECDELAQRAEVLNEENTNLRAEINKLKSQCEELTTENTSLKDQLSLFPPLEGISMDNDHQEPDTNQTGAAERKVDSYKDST

Variants of: B1
Settings: with bzp68_arath BZIP68, Q84LG2

effect of a mutation on the interaction	Variant
disrupting interaction strength	K48M

Variants of: B2
Settings: with mthr2_arath MTHFR2, O80585

effect of a mutation on the interaction	Variant
disrupting interaction strength	K48M

Variants of: B3
Settings: with p2c40, Q9LUS8

effect of a mutation on the interaction	Variant
disrupting interaction strength	K48M

Variants of: B4
Settings: with bzp16_arath BZIP16, Q501B2

effect of a mutation on the interaction	Variant
disrupting interaction strength	K48M
